Measured values as given in article PMC6053953.
Values joined by “and” are separate entries in the source; they are usually repeats but may differ in a detail not shown here. Equal entries are not always repeated.

How the values were obtained:
[1] = biological target: His6-tagged human peroxiredoxin 3 (human); test: native MS; 20 uM protein (monomer) in 100 mM ammonium acetate, pH 8.0; trap collision energy 20 V; step: chains to the dodecameric ring
[2] = biological target: His6-tagged human peroxiredoxin 3 (human); test: AUC; sedimentation velocity, 20 C, 20 uM protein (monomer) in 100 mM ammonium acetate, pH 4.0; c(s) distribution; step: ring-to-ring stacking
[3] = biological target: His6-tagged human peroxiredoxin 3 (human); test: native MS; protein buffer exchanged from 100 mM ammonium acetate, pH 4.0, back into pH 8.0 before injection; step: stacks of rings back to single rings
[4] = biological target: His6-tagged human peroxiredoxin 3 (human); test: native MS; 20 uM protein (monomer) buffer exchanged from pH 8.0 into 100 mM ammonium acetate, pH 4.0; spectra from 60 seconds (0 hours) to 3 hours after exchange; step: ring-to-ring stacking
[5] = biological target: His6-tagged human peroxiredoxin 3 (human); test: SEC-SLS; Superdex 200 Increase 10/300 GL with refractive index and right-angle light scattering, 28 C; 20 uM protein in 100 mM ammonium acetate, pH 8.0; step: chains to the dodecameric ring
[6] = biological target: cleaved human peroxiredoxin 3 (human); test: native MS; 20 uM protein (monomer) in 100 mM ammonium acetate, pH 8.0; trap collision energy 20 V; step: chains to the dodecameric ring
[7] = biological target: cleaved human peroxiredoxin 3 (human); test: AUC; sedimentation velocity, 20 C, 20 uM protein (monomer) in 100 mM ammonium acetate, pH 4.0; c(s) distribution; step: ring-to-ring stacking
[8] = biological target: cleaved human peroxiredoxin 3 (human); test: native MS; protein buffer exchanged from 100 mM ammonium acetate, pH 4.0, back into pH 8.0 before injection; step: stacks of rings back to single rings
[9] = biological target: cleaved human peroxiredoxin 3 (human); test: native MS; 20 uM protein (monomer) buffer exchanged from pH 8.0 into 100 mM ammonium acetate, pH 4.0; spectra from 60 seconds (0 hours) to 3 hours after exchange; step: ring-to-ring stacking
[10] = biological target: cleaved human peroxiredoxin 3 (human); test: SEC-SLS; Superdex 200 Increase 10/300 GL with refractive index and right-angle light scattering, 28 C; 20 uM protein in 100 mM ammonium acetate, pH 8.0; step: chains to the dodecameric ring

Row | stoichiometry N [1] | rings in a stack [2] | rings in a stack [3] [rings] | rings in a stack [4] [rings] | stoichiometry N [5] | stoichiometry N [6] | rings in a stack (main population) [7] [rings] | rings in a stack [8] | rings in a stack [9] [rings] | rings in the most populated stack [9] [rings] | stoichiometry N [10] | Substance
1 | 12 | 2 rings and 4 rings | 1 | 2 to 3 | 12 | – | – | – | – | – | – | His6-tagged human peroxiredoxin 3 (natural protein)
2 | – | – | – | – | – | 12 | 34 | 1 rings and 2 rings | 6 | 3 | 12 | cleaved human peroxiredoxin 3 (natural protein)
